Legend:
human IL-21R (human) [1] = molecular target: human IL-21R (human) (UniProt Q9HBE5); assay: AlphaSeq yeast mating assay, pH 5 media
human IL-21R (human) [2] = molecular target: human IL-21R (human) (UniProt Q9HBE5); assay: AlphaSeq yeast mating assay, pH 7 media
human IL-21R (human) [3] = molecular target: human IL-21R (human) (UniProt Q9HBE5); assay: AlphaSeq yeast mating assay, unbuffered media
[4] = molecular target: wild-type human IL-21R (human) (UniProt Q9HBE5); assay: AlphaSeq yeast mating assay, pH 5 media
[5] = molecular target: wild-type human IL-21R (human) (UniProt Q9HBE5); assay: AlphaSeq yeast mating assay, unbuffered media
[6] = molecular target: wild-type human IL-21R (human) (UniProt Q9HBE5); assay: AlphaSeq yeast mating assay, pH 6 media
human IL-21R (human) [7] = molecular target: human IL-21R (human) (UniProt Q9HBE5); assay: AlphaSeq yeast mating assay, pH 6 media
[8] = molecular target: human interleukin 21 receptor (IL-21R) (human) (UniProt Q9HBE5); assay: AlphaSeq yeast mating, pH 6 media
[9] = molecular target: human interleukin 21 receptor (IL-21R) (human) (UniProt Q9HBE5); assay: AlphaSeq yeast mating, pH 5 media
[10] = molecular target: human interleukin 21 receptor (IL-21R) (human) (UniProt Q9HBE5); assay: AlphaSeq yeast mating, unbuffered media
[11] = molecular target: recombinant human IL-21R His tag (Acro Biosystems) (human) (UniProt Q9HBE5); assay: BLI

Substance | Kd (human IL-21R (human) [2]) [µM] | Kd (human IL-21R (human) [3]) [µM] | Kd (human IL-21R (human) [7]) [µM] | other results
IL-21_P62S (from UniProt Q9HBE4 32-152) (ligand) | 0.027 | 2.8 | – | Kd (human IL-21R (human) [1]): 0.1 µM
IL-21_R34Y (from UniProt Q9HBE4 32-152) (ligand) | – | – | – | Kd [4]: 6.7 µM; Kd [5]: 3.4 µM; Kd [6]: 0.35 µM
IL-21_I37S (from UniProt Q9HBE4 32-152) (ligand) | 0.32 | 240 | 0.53 | Kd (human IL-21R (human) [1]): 16 µM
IL-21_F79Y (from UniProt Q9HBE4 32-152) (ligand) | 0.53 | 330 | 2 | Kd (human IL-21R (human) [1]): 72 µM
IL-21_Y52H (from UniProt Q9HBE4 32-152) (ligand) | 0.11 | 69 | – | Kd (human IL-21R (human) [1]): 4.4 µM
IL-21_V98H (from UniProt Q9HBE4 32-152) (ligand) | – | – | – | Kd [8]: 0.026 µM; Kd [9]: 0.17 µM; Kd [10]: 8.8 µM
IL-21_F60H (from UniProt Q9HBE4 32-152) (ligand) | 0.035 | 2.4 | 0.015 | Kd (human IL-21R (human) [1]): 0.062 µM
IL-21_A112R (from UniProt Q9HBE4 32-152) (ligand) | – | – | – | Kd [4]: 0.039 µM; Kd [5]: 7.9 µM
IL-21_human_F76M Fc fusion protein (from UniProt Q9HBE4 30-162) | – | – | – | Kd [11]: 0.0118 µM
IL-21_V53H (from UniProt Q9HBE4 32-152) (ligand) | – | – | – | Kd [10]: 46 µM
IL-21_E59S (from UniProt Q9HBE4 32-152) (ligand) | – | – | – | Kd [4]: 0.041 µM; Kd [6]: 0.016 µM
IL-21_K131M (from UniProt Q9HBE4 32-152) (ligand) | – | – | – | Kd [10]: 27 µM
IL-21_V98K (from UniProt Q9HBE4 32-152) (ligand) | 0.25 | 150 | 0.094 | –
IL-21_P107Y (from UniProt Q9HBE4 32-152) (ligand) | – | – | – | Kd [4]: 0.12 µM; Kd [5]: 6.5 µM; Kd [6]: 0.058 µM
IL-21_S142H (from UniProt Q9HBE4 32-152) (ligand) | – | – | – | Kd [9]: 0.051 µM; Kd [10]: 11 µM
IL-21_R139S (from UniProt Q9HBE4 32-152) (ligand) | – | – | – | Kd [4]: 0.081 µM; Kd [5]: 3 µM
IL-21_human_V53T Fc fusion protein (from UniProt Q9HBE4 30-162) | – | – | – | Kd [11]: 0.00786 µM
IL-21_E72T (from UniProt Q9HBE4 32-152) (ligand) | 0.057 | 2.8 | 0.027 | –
IL-21_R34G (from UniProt Q9HBE4 32-152) (ligand) | – | – | – | Kd [8]: 0.15 µM; Kd [9]: 6.4 µM; Kd [10]: 9.9 µM
IL-21_E72I (from UniProt Q9HBE4 32-152) (ligand) | – | – | – | Kd [5]: 4.7 µM; Kd [6]: 0.015 µM

Substance | Kd (human IL-21R (human) [2]) [µM] | Kd (human IL-21R (human) [3]) [µM] | Kd (human IL-21R (human) [7]) [µM] | other results
IL-21_I96D (from UniProt Q9HBE4 32-152) (ligand) | 35 | 580 | 60 | –
IL-21_E68K (from UniProt Q9HBE4 32-152) (ligand) | – | – | – | Kd [4]: 0.027 µM; Kd [5]: 3.3 µM
IL-21_N70H (from UniProt Q9HBE4 32-152) (ligand) | – | – | – | Kd [5]: 4.4 µM; Kd [6]: 0.02 µM
IL-21_human_W73V Fc fusion protein (from UniProt Q9HBE4 30-162) | – | – | – | Kd [11]: 0.0063 µM
IL-21_I45A (from UniProt Q9HBE4 32-152) (ligand) | – | – | – | Kd [8]: 0.025 µM; Kd [10]: 8.4 µM
IL-21_human_F79P Fc fusion protein (from UniProt Q9HBE4 30-162) | – | – | – | Kd [11]: 0.0111 µM
IL-21_human_R38K Fc fusion protein (from UniProt Q9HBE4 30-162) | – | – | – | Kd [11]: 0.313 µM
IL-21_W73Y (from UniProt Q9HBE4 32-152) (ligand) | – | – | – | Kd [4]: 0.19 µM; Kd [6]: 0.085 µM
IL-21_V46K (from UniProt Q9HBE4 32-152) (ligand) | 28 | 730 | – | Kd (human IL-21R (human) [1]): 340 µM
IL-21_human_I45G Fc fusion protein (from UniProt Q9HBE4 30-162) | – | – | – | Kd [11]: 0.012 µM
IL-21_human_V53N Fc fusion protein (from UniProt Q9HBE4 30-162) | – | – | – | Kd [11]: 0.0871 µM
IL-21_L42H (from UniProt Q9HBE4 32-152) (ligand) | 5.4 | 550 | 67 | –
IL-21_S77R (from UniProt Q9HBE4 32-152) (ligand) | – | – | – | Kd [10]: 46 µM
IL-21_L152H (from UniProt Q9HBE4 32-151) (ligand) | – | – | – | Kd [4]: 0.026 µM; Kd [5]: 4.4 µM; Kd [6]: 0.012 µM
IL-21_human_D44P Fc fusion protein (from UniProt Q9HBE4 30-162) | – | – | – | Kd [11]: 1.36 µM
IL-21_A112P (from UniProt Q9HBE4 32-152) (ligand) | 0.08 | 1 | 0.021 | Kd (human IL-21R (human) [1]): 0.058 µM
IL-21_M39G (from UniProt Q9HBE4 32-152) (ligand) | 7.8 | 240 | 31 | Kd (human IL-21R (human) [1]): 150 µM
IL-21_D33Q (from UniProt Q9HBE4 32-152) (ligand) | – | – | – | Kd [4]: 0.084 µM; Kd [5]: 7.5 µM; Kd [6]: 0.021 µM
IL-21_E68R (from UniProt Q9HBE4 32-152) (ligand) | – | – | – | Kd [4]: 0.04 µM; Kd [5]: 6.3 µM; Kd [6]: 0.016 µM
IL-21_V53T (from UniProt Q9HBE4 32-152) (ligand) | – | – | – | Kd [9]: 9.6 µM; Kd [10]: 30 µM

Substance | Kd (human IL-21R (human) [2]) [µM] | Kd (human IL-21R (human) [3]) [µM] | Kd (human IL-21R (human) [7]) [µM] | other results
IL-21_W73K (from UniProt Q9HBE4 32-152) (ligand) | 10 | 890 | 30 | –
IL-21_S109M (from UniProt Q9HBE4 32-152) (ligand) | 0.081 | 2.5 | 0.43 | –
IL-21_I96P (from UniProt Q9HBE4 32-152) (ligand) | 3 | 270 | 5.7 | –
IL-21_V53S (from UniProt Q9HBE4 32-152) (ligand) | 0.056 | 1.4 | 0.02 | Kd (human IL-21R (human) [1]): 0.047 µM
IL-21_V53E (from UniProt Q9HBE4 32-152) (ligand) | – | – | – | Kd [10]: 31 µM
IL-21_human_P108G Fc fusion protein (from UniProt Q9HBE4 30-162) | – | – | – | Kd [11]: 0.029 µM
IL-21_D33T (from UniProt Q9HBE4 32-152) (ligand) | – | – | – | Kd [10]: 15 µM
IL-21_R34Q (from UniProt Q9HBE4 32-152) (ligand) | 0.12 | 1.1 | 0.035 | Kd (human IL-21R (human) [1]): 0.2 µM
IL-21_S109R (from UniProt Q9HBE4 32-152) (ligand) | – | – | – | Kd [4]: 0.036 µM; Kd [5]: 6 µM; Kd [6]: 0.015 µM
IL-21_M39I (from UniProt Q9HBE4 32-152) (ligand) | 0.035 | 2.5 | – | –
IL-21_P108D (from UniProt Q9HBE4 32-152) (ligand) | 0.24 | 1.4 | – | –
IL-21_M36T (from UniProt Q9HBE4 32-152) (ligand) | – | – | – | Kd [4]: 0.11 µM; Kd [5]: 3.1 µM
IL-21_F79E (from UniProt Q9HBE4 32-152) (ligand) | 6.9 | 110 | 7 | Kd (human IL-21R (human) [1]): 59 µM
IL-21_L120H (from UniProt Q9HBE4 32-152) (ligand) | – | – | – | Kd [9]: 0.034 µM
IL-21_I43M (from UniProt Q9HBE4 32-152) (ligand) | – | – | – | Kd [4]: 0.11 µM; Kd [5]: 3.5 µM; Kd [6]: 0.027 µM
IL-21_R38K (from UniProt Q9HBE4 32-152) (ligand) | 7 | 250 | – | –
IL-21_N54K (from UniProt Q9HBE4 32-152) (ligand) | – | – | – | Kd [4]: 0.19 µM; Kd [5]: 8 µM
IL-21_I37V (from UniProt Q9HBE4 32-152) (ligand) | – | – | – | Kd [4]: 0.058 µM; Kd [5]: 3.2 µM
IL-21_S142I (from UniProt Q9HBE4 32-152) (ligand) | 0.041 | 2.6 | – | –

More lines, main results first:

Kd (human IL-21R (human) [2]) [µM] | Kd (human IL-21R (human) [3]) [µM] | Kd (human IL-21R (human) [7]) [µM] | Substance | other results
0.12 | 95 | 0.19 | IL-21_I37K (from UniProt Q9HBE4 32-152) (ligand) | Kd (human IL-21R (human) [1]): 3.3 µM
71 | 1000 | 260 | IL-21_V46Q (from UniProt Q9HBE4 32-152) (ligand) | –
0.028 | 2.7 | 0.012 | IL-21_Q32K (from UniProt Q9HBE4 33-152) (ligand) | Kd (human IL-21R (human) [1]): 0.027 µM
0.12 | 110 | – | IL-21_P62V (from UniProt Q9HBE4 32-152) (ligand) | Kd (human IL-21R (human) [1]): 11 µM
0.24 | 240 | – | IL-21_L56F (from UniProt Q9HBE4 32-152) (ligand) | Kd (human IL-21R (human) [1]): 54 µM
1.2 | 330 | 5 | IL-21_I45G (from UniProt Q9HBE4 32-152) (ligand) | –
0.24 | 240 | 0.052 | IL-21_D44A (from UniProt Q9HBE4 32-152) (ligand) | Kd (human IL-21R (human) [1]): 0.14 µM
0.33 | 150 | – | IL-21_W73G (from UniProt Q9HBE4 32-152) (ligand) | Kd (human IL-21R (human) [1]): 57 µM
20 | 270 | – | IL-21_R105A (from UniProt Q9HBE4 32-152) (ligand) | Kd (human IL-21R (human) [1]): 260 µM
12 | 250 | – | IL-21_L42K (from UniProt Q9HBE4 32-152) (ligand) | –
0.059 | 0.96 | 0.021 | IL-21_Q150D (from UniProt Q9HBE4 32-152) (ligand) | Kd (human IL-21R (human) [1]): 0.056 µM
